{
  "source": "paper PMC9633789",
  "about": "(Nature Communications, 2022)",
  "biological_target": "the molecule itself",
  "assay": "SEC; Superose 6 Increase 10/300 GL; 25 mM HEPES-KOH pH 8.0, 100 mM NaCl, 5 mM MgCl2, 1 mM DTT, 10% sucrose; step of the purification of His-p97",
  "data": [
    {"protein": "His-p97 (recombinant Xenopus p97) (enzyme, UniProt P23787 1-805, looked up, p97, Xenopus; source: E. coli Rosetta 2 (DE3), purified (HisTrap HP, Superose 6 Increase)) MASGSDTKSDDLSTAILKQKSRPNRLIVDESINEDNSMVSLSQAKMDELQLFRGDTVLLKGKKRREAVCIVLSDDTCSDEKIRMNRVVRNNLRVRLGDVISIQPCPDVKYGKRVHVLPIDDTVEGITGNLFEVYLKPYFLEAYRPIRKGDIFLVRGGMRAVEFKVVETDPSPYCIVAPDTVIHCEGEPIKREDEEESLNEVGYDDIGGCRKQLAQIKEMVELPLRHPALFKAIGVKPPRGILLYGPPGTGKTLIARAVANETGAFFFLINGPEIMSKLAGESESNLRKAFEEAEKNAPAIIFIDELDAIAPKREKTHGEVERRIVSQLLTLMDGLKQRAHVIVMAATNRPNSIDPALRRFGRFDREVDIGIPDSTGRLEILQIHTKNMKLSDDVDLEQVANETHGHVGADLAALCSEAALQAIRKKMDLIDLEDETIDAEVMNSLAVTMDDFRWALSQSNPSALRETVVEVPQVTWEDIGGLEDVKRELQELVQYPVEHPDKFLKFGMTPSKGVLFYGPPGCGKTLLAKAIANECQANFISIKGPELLTMWFGESEANVREIFDKARQAAPCVLFFDELDSIAKARGGNIGDGGGAADRVINQILTEMDGMSIKKNVFIIGATNRPDIIDPAILRPGRLDQLIYIPLPDEKSRMAILKANLRKSPVAKDVDVDFLAKMTNGFSGADLTEICQRACKLAIRESIENEIRRERDRQTNPSAMEVEEDDPVPEIRRDHFEEAMRFARRSVSDNDIRKYEMFAQTLQQSRGFGSFRFPAGGQSGAGPSPGAGGGSGGGHFTEEDDDLYG", "values": [
      {"measurement": "stoichiometry N", "value": 6}
    ]}
  ]
}
